Reference: patent US20170224620A1 (Pfizer, published 2017)
Bridges are numbered along the chain shown (N, C = ends). Primed or numbered codes have the meaning given here. [ ]: non-standard residue; d: D form. The star is where a group is joined. Trp(5-OMe) = COc1ccc2[nH]cc(C[C@H](N)C(=O)O)c2c1; Igl = N[C@H](C(=O)O)C1Cc2ccccc2C1; Pen = CC(C)(S)[C@H](N)C(=O)O; DBCO′ = dibenzocyclooctyne; Acm = CC(=O)NC*

Assays:
[1] = molecular target: T1, Fc tagged recombinant human EGFR (rhEGFR-Fc, R&D systems, Cat#344-ER-050) (human, UniProt P00533 25-645); assay: screening ELISA, peptide 100 µM against 0.7 nM biotin-EGF on coated rhEGFR
T1 construct: Bought protein; also called apo-EGFR; not shown: Fc tag

[2] = molecular target: T1, Fc tagged recombinant human EGFR …; assay: EGF competition ELISA, 10% nanoparticle conjugate
[3] = molecular target: T1, Fc tagged recombinant human EGFR …; assay: EGF competition ELISA, 10% nanoparticle conjugate; remark: listed apart in the source
Description: An alanine scan was performed on the amino acids within the cyclic portion of the peptide structure to determine which amino acids were critical for binding. Each amino acid within the peptide was individually replaced with alanine. […] Subsequently, an alanine scan of the flanking amino acids on P₁₋₃ was performed.

[4] = molecular target: T1, Fc tagged recombinant human EGFR …; assay: SPR
[5] = molecular target: T2, EGF bound EGFR (rhEGFR-Fc with recombinant human EGF pre-injected in SPR or 50 nM EGF present in ELISA) (human, UniProt P00533 25-645; P01133 971-1023); assay: P2 competition ELISA: rhEGFR on the plate, 1 nM P2-Biotin dimer as tracer, 50 nM EGF; concentration on a ligand molar basis
T2 construct: Complex of m1 and m5 as target; also called EGFR in the presence of EGF; With EGF; not shown: Fc tag
From the text: (§1) An additional assay was developed to provide an orthogonal assay to SPR during the evaluation of the P₂ peptide analogs and nanoparticle conjugates.

[6] = molecular target: T2, EGF bound EGFR (rhEGFR-Fc with …); assay: P2 competition ELISA, 1% ligand density NP
[7] = molecular target: T2, EGF bound EGFR (rhEGFR-Fc with …); assay: P2 competition ELISA, 5% ligand density NP
[8] = molecular target: T2, EGF bound EGFR (rhEGFR-Fc with …); assay: P2 competition ELISA, 5% nanoparticle conjugate
[9] = molecular target: T1, Fc tagged recombinant human EGFR …; assay: SPR, response against peptide concentration, rhEGFR-Fc captured
Description: (§2) Surface plasmon resonance (SPR) binding studies were carried out on a Biacore T200 instrument (GE Healthcare). […] The contact time and resulting amount of rhEGFR-Fc capture was varied based on the nature of the analyte, namely whether it was a peptide or nanoparticle.
(§3) Peptide binding assays were carried out in 10 mM PBS buffer supplemented with 0.05% surfactant P20 and 5% DMSO by volume, at 25° C. Peptides were injected over the rhEGFR-Fc surface for 60 s, followed by dissociation (buffer injection) for 60 s and regeneration with a 10 s pulse of 3M MgCl₂. A fresh rhEGFR-Fc surface was generated for each concentration of each peptide tested. Peptide binding data was analyzed by fitting to a 1:1 Langmuir kinetic model to obtain the on-rate (kₐ), off-rate (kd) and/or equilibrium binding constant (KD) of the interaction.
All of the peptides were synthesized and evaluated for EGFR binding using SPR (Table 7). […] FIGS. 8A and 8B show a summary of the SPR binding data for the peptides.

[10] = molecular target: Fc tagged recombinant human EGFR (rhEGFR-Fc, R&D systems, Cat#344-ER-050) (human) (UniProt P00533); assay: screening ELISA, peptide 100 µM against 0.7 nM biotin-EGF on coated rhEGFR
[11] = molecular target: T2, EGF bound EGFR (rhEGFR-Fc with …); assay: SPR, peptide over captured rhEGFR-Fc after rhEGF pre-injection
Description: as §2, §3

[12] = molecular target: T1, Fc tagged recombinant human EGFR …; assay: SPR, peptide over captured rhEGFR-Fc, without EGF
Description: as §2, §3
The two aromatic mutations P₂₋₉₈ and P₂₋₁₀₁ were combined into one peptide (P₂₋₁₀₂).

[13] = molecular target: T2, EGF bound EGFR (rhEGFR-Fc with …); assay: P2 competition ELISA: rhEGFR on the plate, 1 nM P2-Biotin dimer as tracer, 50 nM EGF
From the text: as §1

H-YRDLKWWELR-NH2 [EGFf-10]
% inhibition of EGF [1]: < 20%

B1: 10% P1 nanoparticle (other)
peptide: Ac-SECFPLAPDWLSCILGGK(DBCO′)-NH2
modifications: disulfide 3-13; also: DBCO clicked to azide PLA-PEG nanoparticle, 10 mol %
notes: Multivalent nanoparticle conjugate; also called P1 conjugated to nanoparticle at 10 mol %; P1 NP
IC50 [2]: 211 µg/mL

Ac-AECFPAAPDWLSCILGGK(DBCO′)-NH2 (other, disulfide 3-13; also: DBCO clicked to azide PLA-PEG nanoparticle, 10 mol %) [10% P1-3-1 nanoparticle]
10% NP Relative IC50 (normalized to P1) [3]: 1 ratio

B2: 10% P1-3 nanoparticle (other)
peptide: Ac-SECFPAAPDWLSCILGGK(DBCO′)-NH2
modifications: disulfide 3-13; also: DBCO clicked to azide PLA-PEG nanoparticle, 10 mol %
notes: also called P1-3 NP; P1-3 (Leu6-Ala) conjugate
IC50 [2]: 10.3 µg/mL

Ac-SECAPLAPDWLSCILGGK(DBCO′)-NH2 (other, disulfide 3-13; also: DBCO clicked to azide PLA-PEG nanoparticle, 10 mol %) [10% P1-1 nanoparticle]
10% NP Relative IC50 (normalized to P1) [3]: ~0.3 ratio

B3: EGFf-7 (peptide)
peptide: H-C(Acm)NCVVGYIGE-NH2
SMILES: CC[C@H](C)[C@H](NC(=O)[C@H](Cc1ccc(O)cc1)NC(=O)CNC(=O)[C@@H](NC(=O)[C@@H](NC(=O)[C@H](CS)NC(=O)[C@H](CC(N)=O)NC(=O)[C@@H](N)CSCNC(C)=O)C(C)C)C(C)C)C(=O)NCC(=O)N[C@@H](CCC(=O)O)C(N)=O
% inhibition of EGF [1]: < 20%

Ac-CFPAAPDWLSCGGK(DBCO′)-NH2 (disulfide 1-11 (inferred)) [P1-3-7]
binding result [4]: no binding

Ac-DPCTWEVWGRECLQGGK-NH2 (other, disulfide 3-12; not fully specified (residue 17), also called P2 1% Ligand Density NP) [1% P2 nanoparticle]
IC50 (read off the curve) [5]: ~30 nM
IC50 [6]: 81 µg/mL

B4: 5% P2 nanoparticle (other)
peptide: Ac-DPCTWEVWGRECLQGGK-NH2
modifications: disulfide 3-12; not fully specified (residue 17)
notes: also called P2 5% Ligand Density NP; parent P2 conjugated nanoparticle (5%)
IC50 (read off the curve) [5]: ~9 nM
IC50 [7]: 4.3 µg/mL
IC50 [8]: 6 µg/mL

Ac-SGCLDALWQCVY-NH2 (disulfide 3-10 (inferred), named singly only on the sheet) [Peptide 4]
binding result [9]: binds

H-GYIGERCQYR-NH2 [EGFf-8]
% inhibition of EGF [1]: < 20%

H-DGYCLHDGVC-NH2 (cysteine pairing not given here) [EGFf-3]
% inhibition of EGF [10]: 62.5%

B5: P2-55 (Ac-DPPen…enLQGGK(PEG4-DBCO)-CONH2) (peptide)
peptide: DPXTWEVWGREXLQGGK
modifications: N-terminal acetyl; penicillamine at 3 and 12, disulfide; Lys17(PEG4-DBCO); C-terminal amide
notes: also called Pen analog
Kd [11]: 69 nM
Kd [12]: 74 nM

B6: P2-2/55 (Ac-DAPen…enLQGGK(DBCO)-CONH2) (peptide)
peptide: DAXTWEVWGREXLQGGK
modifications: N-terminal acetyl; penicillamine at 3 and 12, disulfide; Lys17(DBCO); C-terminal amide
notes: also called DA PenPen
Kd [11]: 97 nM
Kd [12]: 137 nM

B7: 5% P2-2/55 nanoparticle (other)
peptide: DAXTWEVWGREXLQGGK
modifications: not fully specified; N-terminal acetyl; penicillamine at 3 and 12, disulfide; Lys17(DBCO) clicked to azide PLA-PEG nanoparticle at 5%; C-terminal amide
notes: also called P2-2/55 [DA PenPen]; NP; Ala2-Pen
IC50 [8]: 6.3 µg/mL
Rel. Diff. (against P2 NP) [8]: 1.05 ratio

Ac-DP[Pen]T[Igl]EV[Trp(5-OMe)]GRE[Pen]LQGGK(DBCO′)-NH2 (disulfide 3-12, also called Aro PenPen) [P2-55/102 (Ac-DPPenT(2Ind)GEV(5MeO)WGREPenLQGGK(DBCO)-CONH2)]
Kd [11]: 75.4 nM
Kd [12]: 72 nM

B8: P2-2/55/102 (Ac-DAPenT(2Ind)GEV(5MeO)WGREPenLQGGK(DBCO)-CONH2) (peptide)
peptide: Ac-DA[Pen]T[Igl]EV[Trp(5-OMe)]GRE[Pen]LQGGK(DBCO′)-NH2
modifications: disulfide 3-12
notes: also called DA Aro PenPen; triple mutant
Kd [11]: 33.4 nM
Kd [12]: 53 nM

B9: P2 (Ac-DPCTWEVWGRECLQGGK(PEG4-DBCO)-CONH2) (peptide)
peptide: Ac-DPCTWEVWGRECLQGGK(PEG4‑DBCO)-NH2
modifications: disulfide 3-12
notes: also called P2 DBCO conjugate; parent peptide (P2)
IC50 (read off the curve) [13]: ~200 nM

Ac-DACT[Igl]EV[Trp(5-OMe)]GRECLQGGK(DBCO′)-NH2 (disulfide 3-12, also called DA Aro) [P2-2/102 (Ac-DACT(2Ind)GEV(5MeO)WGRECLQGGK(DBCO)-CONH2)]
Kd [11]: 23.3 nM
Kd [12]: 23.8 nM

Ac-DPCT[Igl]EV[Trp(5-OMe)]GRECLQGGK(PEG4‑DBCO)-NH2 (disulfide 3-12, also called aromatic analog) [P2-102 (Ac-DPCT(2Ind)GEV(5MeO)WGRECLQGGK(PEG4-DBCO)-CONH2)]
Kd [11]: 32 nM
Kd [12]: 38 nM

Ac-MFCFRWYAGWSCVS-NH2 (disulfide 3-12 (inferred), named singly only on the sheet) [Peptide 8]
binding result [9]: binds

B10: EGFf-6 (peptide)
peptide: H-LDKYACNC(Acm)VV-NH2
SMILES: CC(=O)NCSC[C@H](NC(=O)[C@H](CC(N)=O)NC(=O)[C@H](CS)NC(=O)[C@H](C)NC(=O)[C@H](Cc1ccc(O)cc1)NC(=O)[C@H](CCCCN)NC(=O)[C@H](CC(=O)O)NC(=O)[C@@H](N)CC(C)C)C(=O)N[C@H](C(=O)N[C@H](C(N)=O)C(C)C)C(C)C
% inhibition of EGF [1]: < 20%

{DBCO′}-SECFPAAPDWLSCIL-NH2 (disulfide 3-13 (inferred), also called Alternate DBCO placement) [P1-3-14]
binding result [4]: no binding

B11: Peptide 1 (peptide)
peptide: Ac-SECFPLAPDWLSCIL-NH2
modifications: disulfide 3-13 (inferred)
notes: named singly only on the sheet; also called free literature peptide without the GGK(DBCO) tail
binding result [9]: binds

Ac-CFPAAPDWLSCGGK(DBCO′)-NH2 (disulfide 1-11 (inferred)) [P1-3-6]
binding result [4]: no binding

H-RCQYRDLKWW-NH2 [EGFf-9]
% inhibition of EGF [1]: 63.8%
